In patent publication US20210210159A1, “COMPUTATIONAL PROTEIN DESIGN USING TERTIARY OR QUATERNARY STRUCTURAL MOTIFS” (Trustees of Dartmouth College, priority 2018, published 2021):

Experiment: Fast Protein Liquid Chromatography / size-exclusion chromatography, oligomeric state
Type: physicochemical
Conditions: concentration of at least 10 μM
From the text: Based on the standards, the dimeric protein would be expected to elute at the volume indicated by a dotted line, which eliminates the possibility of design oligomerization.

Substance: native mCherry: Red Fluorescent Protein mCherry (PDB code 2H5Q), design template (SEQ ID NO. 1) [reference compound]
- oligomeric state in solution: monomeric
